We go through 2 molecules from PMC4889915 (Nucleic Acids Research, 2016).

The labels stand for the following.
B1: AtTRB2-6xHis (natural protein, Arabidopsis thaliana, UniProt Q9FJW5 1-299, looked up)
chain: MGAPKQKWTPEEEAALKAGVLKHGTGKWRTILSDTEFSLILKSRSNVDLKDKWRNISVTALWGSRKKAKLALKRTPPGTKQDDNNTALTIVALTNDDERAKPTSPGGSGGGSPRTCASKRSITSLDKIIFEAITNLRELRGSDRTSIFLYIEENFKTPPNMKRHVAVRLKHLSSNGTLVKIKHKYRFSSNFIPAGARQKAPQLFLEGNNKKDPTKPEENGANSLTKFRVDGELYMIKGMTAQEAAEAAARAVAEAEFAITEAEQAAKEAERAEAEAEAAQIFAKAAMKALKFRIRNHPW

What all share (experiment): pull-down
For experiment [1], the target named is T1, GST-HDA6 (Arabidopsis thaliana, UniProt Q9FML2 1-471).
T1 sequence (looked up): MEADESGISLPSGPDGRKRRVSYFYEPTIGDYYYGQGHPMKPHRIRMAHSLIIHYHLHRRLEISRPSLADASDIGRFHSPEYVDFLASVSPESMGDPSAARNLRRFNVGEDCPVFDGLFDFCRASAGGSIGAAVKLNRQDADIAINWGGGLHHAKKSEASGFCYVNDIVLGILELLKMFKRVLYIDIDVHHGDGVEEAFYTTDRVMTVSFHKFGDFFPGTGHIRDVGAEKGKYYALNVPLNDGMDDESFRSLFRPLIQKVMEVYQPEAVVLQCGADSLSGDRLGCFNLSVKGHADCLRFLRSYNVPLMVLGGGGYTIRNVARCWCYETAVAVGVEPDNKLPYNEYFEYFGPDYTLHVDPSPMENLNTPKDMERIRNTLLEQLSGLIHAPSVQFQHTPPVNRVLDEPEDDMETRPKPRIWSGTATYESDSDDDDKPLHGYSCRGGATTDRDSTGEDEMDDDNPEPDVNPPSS

The target of experiment [2] is T2, AtTRB3-6xHis (Arabidopsis thaliana, UniProt Q9M2X3 1-295).
T2 sequence (looked up): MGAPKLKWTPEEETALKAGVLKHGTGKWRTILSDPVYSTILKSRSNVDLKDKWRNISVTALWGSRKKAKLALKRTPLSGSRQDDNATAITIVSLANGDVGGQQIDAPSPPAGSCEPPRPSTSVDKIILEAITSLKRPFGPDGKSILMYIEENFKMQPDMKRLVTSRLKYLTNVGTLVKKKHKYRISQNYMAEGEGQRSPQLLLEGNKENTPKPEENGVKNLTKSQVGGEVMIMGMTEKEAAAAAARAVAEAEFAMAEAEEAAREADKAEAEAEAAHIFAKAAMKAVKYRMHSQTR

Experiment [3] has as its target B1.

As for B1, in experiment [1], the binding result is given as “binds”.

B2: GST-HDT4 (full-length) (enzyme, Arabidopsis thaliana, UniProt Q9M4T3 1-203, looked up)
chain: MEFWGIEIKPGKPFKVIQKDGFMVHASQVTLGDVEKVKKDETFAVYVKIGDDENGFMIGNLSQKFPQFSIDLYLGHEFEISHNSTSSVYLIGYRTFDAFDELDEEIDSDSELDEYMEQQIAALPQNEINPEEDDESDSDEMGLDEDDDSSDEEDVEAEAPLKVAPPSKKMPNGAFEIAKGGKKNKSSGGKKRCPFPCGPSCKK
With B2, the binding result in experiment [2] and in experiment [3] was “binds” in each case.
